From patent US8039438B2, “Synthetic peptides that cause F-actin bundling and block actin depolymerization” (The Regents of the University of California, priority 2003, dated 2011)
“Also recorded” adds a separate entry of the source.

Experiments:
[1] = test system: Embryos from Xenopus laevis; assay: Actin-dependent cleavage in embryos injected with peptide; assay type: in vivo; conditions: 0.6 mg/mL final concentration in egg; for effect on cell division of embryos: injected, fixed at 8-cell stage
Text: Referring now to photographs of FIG. 3 the peptides have a severely abnormal effect on the embryonic development of cells. […] The embryos resemble the uninjected normal embryos of FIG. 3A
The resulting blastomeres were unable to regain function and were severely abnormal showing abortive cleavage furrows.
However, in the embryos injected with the active peptide (FIG. 3F), filamentous actin is seen in the abortive cleavage furrows.

[2] = molecular target: T1, rabbit muscle actin (Oryctolagus cuniculus, UniProt P68135); assay: In vitro bundling of actin by peptides (co-polymerization, differential centrifugation, SDS gel); assay type: biochemical; conditions: for activity designation of the peptide in the sequence list (active / less active / inactive): summary sequence table; for bundled actin upon inducing polymerization: polymerization induced (PI +); for In vitro actin bundling activity: Tables 2 and 3, peptide co-polymerized with actin in vitro
T1 construct: Purified rabbit muscle actin (Cytoskeleton Inc., Denver, Mo.); purchased Cytoskeleton Inc; host or cells: rabbit muscle
Description: The peptides in Table 2 were added to polymerised actin in vitro at different molar ratios. Centrifugation was used to separate fractions containing F-actin, G-actin and bundled actin, which were then run out on […]. Purified rabbit muscle actin (Cytoskeleton Inc., Denver, Mo.) was depolymerized in Low Salt Buffer [LSB; 5 mM Tris-HCl, pH 8.0, 0.2 mM CaCl2, 0.2 mM ATP, 0.5 mM DTT, mM sucrose) for 1 h on ice and denucleated by centrifugation for 1 h at 100,000×g, 4° C. 13 μM monomeric actin was polymerized in vitro by addition of 1/50 vol. […] The samples were centrifuged for 15 min at 10,000×g at room temperature to pellet “bundled filaments”. The resulting supernatant was centrifuged for 1 h at 100,000×g at room temperature to separate F-actin filaments […]. The fractions were boiled in SDS-sample buffer and analyzed on a 10% SDS-Polyacrylamide gel stained with Coomassie.

[3] = test system: dextran-labeled electroporated cells; assay: Change in number of dextran-labeled cells after electroporation with peptide; assay type: cell-based; conditions: dextran-labeled cells counted before and after 18 hrs incubation
Description: Electroporated cells were treated with fluorescent dextran plus peptide so those cells receiving the peptide could be identified. Typically a very small number of cells successfully incorporate substance during electroporation, making it difficult to identify those receiving peptide. Typically one sees 10-20% incorporation. But, there is good evidence showing that if a cell incorporates one component in buffer, it will incorporate all components. Thus, dextran can be used to identify those cells receiving peptide. After electroporation of cells with fluorescent dextran and the active peptide SEQ ID NO: 12, the dextran-labeled cells were initially counted and then incubated for 18 hrs. After incubation overnight, the dextran-labeled cells were once again counted. The following Tables 4 and 5 show the average change in dextran-labeled cells after the cells are electroporated and the peptide has invaded the cell body. The cell numbers of the SS12 treated peptide seemed to fluctuate after incubation with various concentrations of the SS12 peptide.

[4] = test system: MDA 231 cells; assay: Actin reorganization in MDA 231 cells electroporated with peptide, rhodamine-phalloidin stained; assay type: cell-based, human; conditions: MDA 231 cells electroporated with peptide
Description: Referring now to FIG. 2, it can be shown that treatment with an active peptide results in actin organization in human mammary epithelial tumor cells. MDA 231 cells were electroporated with SS1 (panel A) or SS12 (panel B), fixed, and rhodamine-phalloidin stained. Control epithelial tumor cells were treated with SS1 (SEQ ID NO: 9) resulting in no effect on actin-filled lamellipodia (or ruffling) characteristic of crawling cells.
MDA 231 cells are a particularly aggressive tumor cell line crawling and moving from between tissues.

[5] = test system: actin comet tails in Xenopus egg extracts; assay: Actin comet-tail formation in cytoplasmic extracts; assay type: biochemical, Xenopus laevis; conditions: for effect on actin comet tails: FIGS. 4C, 4D, 4F, concentration not given
Description: In FIGS. 4A and 4B, in vitro polymerized actin forms comet tail from rhodamine-labeled actin added to Xenopus laevis egg cytoplasmic extract. This was set up according to the protocol in Taunton et al., J Cell Biol. 2000 Feb. 7; 148(3):519-30.
Crude Xenopus egg extract was prepared as described except that cytochalasin D was omitted (Murray and Kirschner, Nature. 1989 May 25; 339(6222):275-80). Cytosol and a heavy membrane fraction were prepared by centrifugation of the crude extract (2 h, 300.000 g max; BECKMAN SW-50 rotor). The viscous glycogen pellet beneath the membrane layer was discarded. Cytosol was further clarified by spinning for 15 min at 541,000 g max (BECKMAN TLA 100.3 rotor). Crude membranes (diluted with one volume of 2 M sucrose) and cytosol were snap frozen in separate aliquots for storage at −80° C. unless otherwise indicated. Clarified cytosol contained a small population of vesicles, but motility assays were far more robust (more comet tails over a longer time period) when cytosol was supplemented with the heavy membrane fraction.
For the standard assay, crude membranes in 1 M sucrose (20-μl aliquot, derived from ˜80 μl crude extract) were washed and resuspended in 14 μl buffer A (50 mM NaCl, 5 mM MgCl2, and 50 mM tris [pH 7.5]). To the membrane suspension were added 35 μl cytosol (derived from ˜80 μl crude extract), 0.3 μl rhodamine-labeled actin (prepared according to Kellogg et al., Development. 1988 August; 103(4):675-86), 3 μl PMA (20 μM stock in 10% DMSO), and 20 μl buffer A at 4° C. 20-μl samples were then warmed to room temperature. After 30-40 min, 2-μl aliquots were viewed with a Nikon E800 microscope to yield the photomicrographs of FIG. 4. Images were acquired with a Princeton Instruments cooled CCD camera (standard rhodamine filter set, Princeton Instruments, Trenton, N.J.) and analyzed with WINVIEW (Visitron System, Puchheim, Germany) or METAMORPH software (Princeton Instruments, Trenton, N.J.). Pixels having an intensity over a threshold value (set to a value greater than the background fluorescence in regions devoid of comet tails) were summed over 10 random fields to quantitate relative actin assembly.
Cytosol was supplemented with a crude membrane fraction, rhodamine-actin, 1 μM PMA and peptide SS2 or SS12 (1 μM). After incubating at room temperature for 20 min, samples were viewed by fluorescence. Actin comet tails formed in Xenopus cytoplasmic extracts where no SS2 or SS12 peptides were added as shown by the photographs A, B and E of FIG. 4.

[6] = molecular target: T2, rabbit muscle aldolase with actin (Oryctolagus cuniculus, UniProt P68135); assay: Aldolase co-precipitation with polymerized actin; assay type: biochemical; conditions: 1 nmol aldolase, 100 nmol peptide
T2 construct: presence (lanes 4-6) of rabbit muscle actin (2 nmol); purchased Sigma (aldolase); host or cells: rabbit muscle
Text: Referring now to FIG. 7, since the SS2 sequence is specific to SuSy protein (with SS2 having some similarity to actin), we tested its effect on the well-known interaction of rabbit muscle aldolase with actin (Winter et al. 1998, Rabbit muscle aldolase was purchased from Sigma). Phalloidin could potentially interfere with the peptides of the invention since both drugs affect actin.
Addition of SS2 peptide had no effect on aldolase precipitation in the absence of actin (FIG. 7A), but increased the amount of aldolase co-precipitating with polymerized actin (FIG. 7B). Although binding of aldolase to actin is not sucrose dependent as shown for SuSy, the presence of Sucrose in the polymerization assay caused an additional increase in the amount of aldolase bound to polymerized actin as shown by lane 6 in FIG. 7B. Rabbit muscle aldolase (1 nmol) was incubated in the absence (lanes 1-3) or presence (lanes 4-6) of rabbit muscle actin (2 nmol).

[7] = 1:1 molar ratio peptide:actin, FIGS. 6C, 6D

| activity designation of the peptide in the sequence list (active / less active / inactive) [2] | bundled actin upon inducing polymerization [2, 7] | In vitro actin bundling activity [2] | Sequence | bundling of actin during in vitro polymerization [2] | other results |
| --- | --- | --- | --- | --- | --- |
| SP3 inactive | do not produce bundled actin | inactive | RRISSVEDKK (SP3 inactive synthetic peptide) [reference compound] | – | – |
| NR11 inactive | – | inactive | GPTLKRTASTAFMNTTSKK (NR11 inactive synthetic peptide) [reference compound] | – | – |
| SP26 inactive | – | inactive | GRMRRIATVEMMKK (SP26 inactive synthetic peptide) [reference compound] | not able to bundle actin filaments in vitro | – |

The next lines start with the sequence.

| Sequence | activity designation of the peptide in the sequence list (active / less active / inactive) [2] | bundled actin upon inducing polymerization [2, 7] | In vitro actin bundling activity [2] | bundling of actin during in vitro polymerization [2] | other results |
| --- | --- | --- | --- | --- | --- |
| GDRVLSRLHSVRERIGK (synthetic SS1 inactive control peptide) [reference compound] | SS1 inactive | – | – | – | effect on cell division of embryos [1]: no effect; % change in cell number [3]: +45.0%; % change in cell number ([3]; peptide concentration 0.2 μM): +1.2%; % change in cell number ([3]; peptide concentration 1.0 μM): +17.4%; % change in cell number ([3]; peptide concentration 10.0 μM): +43.8%; effect on actin-filled lamellipodia [4]: no effect |
| GIVRKWISRFEVWPYLKK (SS2 active peptide based on Zea mays SuSy 377- 392) | SS2 active | the bulk of the actin is bundled | active | most active | lasting effect on cell division ([1]; divisions typically an hour apart): at least 3 divisions; effect on cell division of embryos [1]: block several cell divisions; effect on actin comet tails [5]: complete disruption of the comet tails; actin comet tail formation ([5]; peptide 1 μM, 1 μM PMA, 20 min at room temperature): little or no actin comet tail formation; bundling of already polymerized (filamentous) actin ([2]; 2 nmol actin polymerized 30 min, then 0, 1, 2, 4 and 20 nmol peptide for 30 min, FIG. 6B): Only the highest concentration of SS2 caused bundling; bundled actin with peptide alone ([2]; 1:1 molar ratio peptide:actin, polymerization not induced, FIGS. 6C, 6D): half of the actin bundled; effect of phalloidin on bundling activity of the peptide ([2]; FIG. 7): not affected; distribution of actin between bundled and F-actin fraction ([2]; added to unpolymerized actin, molar ratio peptide to actin 0.5, FIG. 6A): half-bundled and half-F-actin; amount of aldolase co-precipitating with polymerized actin ([6]; 2 nmol actin, FIG. 7B): increased; aldolase precipitation in the absence of actin ([6]; FIG. 7A): no effect |
| GIVRKAISRFEVAPYL (SS15 less active synthetic peptide) | SS15 less active | did not cause bundled actin | less active | – | form of polymerised actin ([2]; molar ratio peptide:actin 10:1 and 100:1, added to unpolymerized actin, FIG. 6E): predominantly in the bundled form |
| WISRFEVW (Small block of SS12 sequence required for less active synthetic peptide) [SMIN] | SMIN less active | – | less active | – | – |
| ENGIVRKWISRFEVW (synthetic peptide derived from Zea mays SuSy2 protein 357-389) [SEQ ID NO: 3, Zea mays SuSy2 375-389] | – | – | – | – | effect on actin comet tails [5]: complete disruption of the comet tails |
| ILRVPFRTENGIVRK (SS11 inactive synthetic peptide) | SS11 inactive | do not produce bundled actin | inactive | not effective in bundling; also recorded: did not cause actin to bundle | – |
